This passage reports Km and kcat results from US6953577B2, “Human methionine aminopeptidase type 3” (Pharmacia Corporation, priority 1999, dated 2005).

This data set concerns CSCC[C@H](N)C(=O)N[C@@H](C)C(=O)N[C@@H](CO)C(=O)O. The data set is described as follows: purified protein, by the assay type. The following applies: other: hydrolysis of methionine from MAS peptide substrate; pH 7.5.

Protocol: Hydrogen peroxide, produced by the L-amino acid oxidase reaction, was measured by monitoring the formation of resorufin from Amplex Red in a reaction catalyzed by of horseradish peroxidase. […] The reaction was performed in a 96-well plate format at ambient temperature using the following assay buffer: 20 mM HEPES-Na pH 7.5, 100 mM NaCl, 0.1 mM CoCl2 containing 100 μM Amplex Red, 0.15 U/ml L-amino acid oxidase, 0.5 U/ml horseradish peroxidase.
The IC50 values were determined under conditions in which enzyme concentration and reaction time were linear.

The Km is the concentration of substrate that gives half-maximal velocity. As usually defined, the kcat is the maximal rate divided by the concentration of active sites. Turning to “recombinant human MetAP-1 (Homo sapiens)”, the Km was found to be 8.5 mM and the kcat worked out at 0.75 s⁻¹.
